In assay [1] the target is Uso1-HA3, full length, native protein of Aspergillus (Aspergillus nidulans). Nature of the assay: SEC. A general note: In gel filtration, larger molecules generally elute earlier.
For assay [2], the target named is Uso1ΔCTR-His6x (pET21b-Uso1ΔCTR-His6x) (Aspergillus nidulans). The assay can be described thus: AUC + other: dynamic light scattering.
Assay [3] addresses Uso1(E6K/G540S)ΔCTR-His6x (pET21b-Uso1(E6K/G540S)ΔCTR-His6x) (Aspergillus nidulans). The assay can be described thus: AUC + other: dynamic light scattering.
The target of assay [4] is Uso1(E6K/G540S)-His6x, full length (pET21b-Uso1(E6K/G540S)-His6x) (Aspergillus nidulans). Nature of the assay: AUC + other: dynamic light scattering.
Assay [5] addresses Bos1-GST (pET21b-Bos1-GST), cytoplasmic domain of Bos1 (Aspergillus nidulans). Nature of the assay: pull-down.
In assay [6] the target is Uso1 CCD-His6x (pET21b-Uso1 CCD-His6x), coiled-coil domain (CC + CTR) (Aspergillus nidulans). The assay can be described thus: AUC + other: dynamic light scattering.
Assay [7] concerns the target Uso1-His6x, full length (pET21b-Uso1-His6x) (Aspergillus nidulans). The assay can be described thus: SEC.
Assay [8] has the same target. Nature of the assay: AUC + other: dynamic light scattering.
Assay [9] deals with Bet1-GST (pET21b-Bet1-GST), cytoplasmic domain of Bet1 (Aspergillus nidulans). Nature of the assay: pull-down.

“Uso1-HA3, full length, native protein of Aspergillus (natural protein)”: the stoichiometry N (as a rule, the number of molecules, sites or subunits per partner or assembly) in [1] stood at 2.
For “Uso1ΔCTR-His6x (pET21b-Uso1ΔCTR-His6x) (domain or fragment)”, in [2], the stoichiometry N stood at 2.
With “Uso1(E6K/G540S)ΔCTR-His6x (pET21b-Uso1(E6K/G540S)ΔCTR-His6x) (domain or fragment)”, the stoichiometry N in [3] is 2.
For “Uso1(E6K/G540S)-His6x, full length (pET21b-Uso1(E6K/G540S)-His6x) (natural protein)”, in assay [4], the stoichiometry N was 2. Also, in [5], the fold increase of the protein retained, against wild-type Uso1 is 5 fold.
“Uso1 CCD-His6x (pET21b-Uso1 CCD-His6x), coiled-coil domain (CC + CTR) (domain or fragment)”: the stoichiometry N in assay [6] came out at 2.
Regarding “Uso1-His6x, full length (pET21b-Uso1-His6x) (natural protein)”, the stoichiometry N in assay [7] and in assay [8] was 2 each time. In assay [9], the percent of the prey pulled down was found to be 70%.
